# Measurements as given in article PMC4072508, “Genome-Wide Prediction and Validation of Peptides That Bind Human Prosurvival Bcl-2 Proteins” (PLoS Computational Biology, 2014).
# T1: Bcl-w, Q92843
# T1 chain: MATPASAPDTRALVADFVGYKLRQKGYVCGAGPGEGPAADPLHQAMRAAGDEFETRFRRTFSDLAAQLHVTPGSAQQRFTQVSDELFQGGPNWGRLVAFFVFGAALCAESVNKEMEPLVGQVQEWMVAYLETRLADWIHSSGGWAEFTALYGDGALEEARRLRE
# T2: Bfl-1, Q16548
# T2 chain: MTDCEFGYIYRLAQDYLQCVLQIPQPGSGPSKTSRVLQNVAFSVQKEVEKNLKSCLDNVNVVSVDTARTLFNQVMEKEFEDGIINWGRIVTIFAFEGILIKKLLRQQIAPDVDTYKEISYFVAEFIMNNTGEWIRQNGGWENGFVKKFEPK
# T3: Mcl-1, Q07820
# T3 chain: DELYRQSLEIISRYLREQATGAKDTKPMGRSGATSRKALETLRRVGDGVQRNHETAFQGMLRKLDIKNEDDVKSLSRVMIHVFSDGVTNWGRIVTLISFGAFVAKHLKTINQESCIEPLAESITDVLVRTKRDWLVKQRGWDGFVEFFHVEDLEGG
# B1: ACAP2 (peptide)
# chain: EKNLPKMAEALAHGADVNWANSEENK
# B2: SNTG1 (peptide)
# chain: KCRHEEVVQVLRNAGEEVTLTVSFLK
# B3: ACAP3 (peptide)
# chain: CQGDTVISECLQRFADSLQEVVNYHM
# B4: IFIT3 (peptide)
# chain: ASGNKEMIEALKQYAMDYSNKALEKG
# B5: GEMIN4 (peptide)
# chain: FVGCEFLHHLLREWGEELQAVLRSSQ
# B6: VCL (peptide)
# chain: KRALIQCAKDIAKASDEVTRLAKEVA
# B7: IRF3 (peptide)
# chain: FQQTISCPEGLRLVGSEVGDRTLPGW
# B8: ACAP1 (peptide)
# chain: LGHTGLACLFLKRGADLGARDSEGRD
# B9: C7orf26 (peptide)
# chain: FDHMVPLVEEINRLADELNPLNASQE
# B10: GRIPAP1 (peptide)
# chain: RTNNYQLSDELRKNGVELTSLRQKVA
# B11: INADL (peptide)
# chain: GMTSEQVAQVLRNCGNSVRMLVARDP
# B12: PEX3 (peptide)
# chain: TCLNRGFSRLLDNMAEFFRPTEQDLQ
# B13: UBE2J1 (peptide)
# chain: YNLKSPAVKRLMKEAAELKDPTDHYH
# B14: CYP2F1 (peptide)
# chain: PRPLSILGNLLLLCSQDMLTSLTKLS
# B15: AGAP3 (peptide)
# chain: RAIPIKQGILLKRSGKSLNKEWKKKY
# B16: MFI2 (peptide)
# chain: PVGYLVESGRLSVMGCDVLKAVSDYF
# B17: FES (peptide)
# chain: TSQTEGLSRLLRQHAEDLNSGPLSKL
# B18: PCM1 (peptide)
# chain: DSLAKFAGRKLKDCGEDLLVEISEVL
# Target: Bcl-2, P10415
# Experiment: peptide SPOT array, c-Myc-tagged receptor at 1 uM or 100 nM, anti-c-Myc-Cy3
# Sequence of Bcl-2, P10415 (P10415 1-217): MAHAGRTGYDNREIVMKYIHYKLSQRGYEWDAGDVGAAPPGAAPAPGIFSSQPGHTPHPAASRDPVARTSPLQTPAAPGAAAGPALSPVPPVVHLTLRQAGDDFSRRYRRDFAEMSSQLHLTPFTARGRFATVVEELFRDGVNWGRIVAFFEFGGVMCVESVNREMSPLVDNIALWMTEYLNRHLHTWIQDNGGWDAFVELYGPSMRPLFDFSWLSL
row,SPOT signal as a fraction of Bim BH3's signal on the same receptor and array,Binder
1,0.01,B1
2,0.01,B2
3,0.01,B3
4,0.01,B4
5,0.01,B5
6,0.03,B6
7,0.01,B7
8,0.03,B8
9,0.01,B9
10,0.14,B10
11,0.04,B11
12,0.02,B12
13,0.03,B13
14,0.03,B14
15,0.19,B15
16,0.01,B16
17,0.01,B17
18,0.01,B18

# Target: T1, Bcl-w, Q92843
# Experiment: as above
row,SPOT signal as a fraction of Bim BH3's signal on the same receptor and array,Binder
1,0.01,B1
2,0.01,B2
3,0.02,B3
4,0.04,B4
5,0.02,B5
6,0.15,B6
7,0.02,B7
8,0.1,B8
9,0.02,B9
10,0.51,B10
11,0.06,B11
12,0.03,B12
13,0.08,B13
14,0.11,B14
15,0.64,B15
16,0.02,B16
17,0.09,B17
18,0.02,B18

# Target: Bcl-xL, Q07817
# Experiment: as above
# Sequence of Bcl-xL, Q07817 (Q07817 1-209): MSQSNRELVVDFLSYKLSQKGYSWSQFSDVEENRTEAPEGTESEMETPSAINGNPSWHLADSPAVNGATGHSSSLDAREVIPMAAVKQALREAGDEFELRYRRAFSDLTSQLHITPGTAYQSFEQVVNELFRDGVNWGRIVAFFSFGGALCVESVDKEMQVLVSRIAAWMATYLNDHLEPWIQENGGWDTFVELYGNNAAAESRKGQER
row,SPOT signal as a fraction of Bim BH3's signal on the same receptor and array,Binder
1,0.02,B1
2,0.02,B2
3,0.02,B3
4,0.06,B4
5,0.04,B5
6,0.12,B6
7,0.03,B7
8,0.14,B8
9,0.02,B9
10,0.39,B10
11,0.18,B11
12,0.06,B12
13,0.19,B13
14,0.2,B14
15,1.42,B15
16,0.04,B16
17,0.05,B17
18,0.02,B18

# Target: T2, Bfl-1, Q16548
# Experiment: as above
row,SPOT signal as a fraction of Bim BH3's signal on the same receptor and array,Binder
1,0.01,B1
2,0.02,B2
3,0.11,B3
4,0.04,B4
5,0.02,B5
6,0.08,B6
7,0.02,B7
8,0.21,B8
9,0.01,B9
10,0.48,B10
11,0.15,B11
12,0.04,B12
13,0.13,B13
14,0.33,B14
15,0.52,B15
16,0.04,B16
17,0.05,B17
18,0.01,B18

# Target: T3, Mcl-1, Q07820
# Experiment: as above
row,SPOT signal as a fraction of Bim BH3's signal on the same receptor and array,Binder
1,0.02,B1
2,0.02,B2
3,0.02,B3
4,0.03,B4
5,0.04,B5
6,0.03,B6
7,0.02,B7
8,0.045,B8
9,0.02,B9
10,0.19,B10
11,0.07,B11
12,0.04,B12
13,0.05,B13
14,0.08,B14
15,0.35,B15
16,0.03,B16
17,0.02,B17
18,0.02,B18
